Literature values, collected in PMC10373500.

Biological target: Asp76 (UniProt position 102, GSPGADRVVFN)

For “Ribonuclease T1 (RNase T1) (not stated in the article (Aspergillus oryzae from outside knowledge))”, the pKa is listed as 0.5.
